Paper PMC6370948, “Complement Dependent and Independent Interaction Between Bovine Conglutinin and Mycobacterium bovis BCG: Implications in Bovine Tuberculosis” (Frontiers in Immunology, 2018)

Target: the molecule itself
Experiment: cross-linking; 20 μg/ml purified rfBC with BS3 (5 μl of 1 mM added to 100 μl), room temperature, 0-64 min, stopped with 20 mM Tris-HCl pH 7.5; SDS-PAGE and Coomassie staining

B1: recombinant truncated form of bovine conglutinin (rfBC), composed of the α-helical neck region and the CRD (domain or fragment, bovine (Bos taurus), UniProt P23805 217-371, looked up)
chain: EVNALKQRVTILDGHLRRFQNAFSQYKKAVLFPDGQAVGEKIFKTAGAVKSYSDAEQLCREAKGQLASPRSSAENEAVTQMVRAQEKNAYLSMNDISTEGRFTYPTGEILVYSNWADGEPNNSDEGQPENCVEIFPDGKWNDVPCSKQLLVICEF
notes: bovine conglutinin, neck region (amino acids 197-224) and C-terminal CRD (amino acids 225-351); numbers count on: the mature protein; also called recombinant fragment of conglutinin; recombinant bovine conglutinin
stoichiometry N: 3
